The values below come from patent US20170008955A1 (CNJ, published 2017).

Changes are numbered by the printed parent chain.

In experiment [1] the target is T1, cSNK:BSA conjugate (bovine, head-to-tail cyclized; conjugated to BSA carrier).
T1 construct: also called BSA-cSNK
In words: BLI 2:1 fit, site 2 (KD2); 1.56 nM row. The method, then: (§1) Biolayer interferometry (Octet […], ForteBio) was used to qualitatively/quantitatively assess the interactions between humanized versions of 5E3 and cSNK:BSA conjugate. […] MAbs were loaded onto sensors and then washed in PBST. Each sensor was associated with one of several cSNK:BSA standards (100 nM to 0 nM) and then washed in PBST. Data was processed statistically using ForteBio Data Analysis software to determine the strength of antigen-antibody binding (KD). For each mAb analyzed, a 2:1 model provided the “best fit”.

For experiment [2], the target named is T1, cSNK:BSA conjugate. In words: BLI (Octet), KD2; unlabelled reference row, taken as hu5E3. On the technique in general: In BLI a coated tip is dipped into the sample, and binding shifts an interference pattern.
For experiment [3], the target named is T1, cSNK:BSA conjugate. In words: BLI 2:1 fit, site 2 (kon2); 1.56 nM row. The method, then:
as §1

Experiment [4] deals with T1, cSNK:BSA conjugate. The experiment in a line: BLI 2:1 fit, site 1; 12.5 nM row. The procedure: as §1
The target in experiment [5] is T1, cSNK:BSA conjugate. The experiment in a line: BLI 2:1 fit, site 1; 50 nM row. The method, then:
as §1

For experiment [6], the target named is T1, cSNK:BSA conjugate. The experiment in a line: BLI (Octet), KD1; unlabelled reference row, taken as hu5E3; unlabelled reference row at the top of the table.
Experiment [7] deals with T2, Aβ42 oligomers (UniProt P05067 672-713).
T2 construct: domain: Aβ42; immobilized preparation containing monomers, low and high molecular weight oligomers; also called Amyloid beta oligomers; Aβ oligomers
The experiment in a line: Biacore (SPR), Aβ oligomer preparation AβO1 (HQ AβO1); lower end of the range. The method, then: (§2) Using a Biacore™ 3000, Aβ42 oligomers were immobilized (containing monomers, low and high molecular weight oligomers) and BSA (reference surface) on 4 separate flow cells of a biosensorchip. Murine 5E3 or humanized 5E3 IgG1, IgG2, and IgG4 were then diluted, sequentially injected over the different immobilized peptides and antibody binding monitored in real time. Binding data was collected by sequentially injecting buffer blanks, 1/10 dilutions of m5E3 or 1 uM dilutions of hu5E3 control over separate flow cells immobilized with BSA or Aβ42 oligomer on another biosensor chip at a flow rate of 10 μl/minute. Association was allowed for 200 seconds, followed by dissociation for 500 seconds and binding responses collected 10 seconds before the end of the […]. All binding responses were double-referenced by subtracting buffer blanks and BSA reference surface binding.
(§3) Results: As shown in FIG. 9A and FIG. 9B, the humanized 5E3 isotypes bound to the Aβ42 oligomer preparation. Affinity constants were determined for hu5E3 IgG1 Aβ42 oligomer preparations.
(In general: SPR reads the build-up and loss of mass on a sensor chip optically.)

Experiment [8] has as its target T1, cSNK:BSA conjugate. In words: BLI 2:1 fit, site 2 (kon2); 25 nM row. The method, then:
as §1

Experiment [9] concerns the target T1, cSNK:BSA conjugate. In words: BLI 2:1 fit, site 1; 1.56 nM row. The procedure:
as §1

The target in experiment [10] is T2, Aβ42 oligomers. In words: Biacore (SPR), Aβ oligomer preparation AβO1 (HQ AβO1); upper end of the range. The method, then: as §2, §3
For experiment [11], the target named is T3, Ovalbumin (UniProt P01012 2-386).
T3 sequence (looked up): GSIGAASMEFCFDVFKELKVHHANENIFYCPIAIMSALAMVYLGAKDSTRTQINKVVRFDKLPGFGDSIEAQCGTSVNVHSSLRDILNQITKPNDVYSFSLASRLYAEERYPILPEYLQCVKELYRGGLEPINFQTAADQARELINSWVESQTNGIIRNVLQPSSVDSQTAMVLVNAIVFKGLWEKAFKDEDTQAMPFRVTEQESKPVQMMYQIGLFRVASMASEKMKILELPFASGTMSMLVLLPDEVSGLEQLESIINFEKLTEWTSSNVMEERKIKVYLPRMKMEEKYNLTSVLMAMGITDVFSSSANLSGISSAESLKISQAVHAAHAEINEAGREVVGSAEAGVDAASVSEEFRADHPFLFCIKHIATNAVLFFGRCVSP
In words: Western immunoblot, FIGS. 3A-D. The method, then: (§4) A 4-12% gradient SDS-PAGE gel was run with cSNK-BSA. The gel was then transferred to a nitrocellulose membrane. The next day the mAbs (1° Ab) were diluted to 2 μg/ml to 5 μg/ml depending on the antibody, and used to probe the membrane at room temperature (RT). The membranes were then probed with anti-mouse IgG-HRP (2° Ab).

Experiment [12] concerns the target T3, Ovalbumin. In words: Western blot of BSA, BSA-cSNK and ovalbumin probed with m5E3. The method, then:
as §4
Background: Immunoblotting shows a protein as a band on a membrane.

In experiment [13] the target is T1, cSNK:BSA conjugate. The experiment in a line: BLI (Octet RED96), 2:1 kinetics, KD2, summary table; KD2, summary table. The procedure: as §1
Table 7 summarizes the affinity constants of humanized 5E3 IgG1, IgG2 and IgG4 constructs. The KD ranges were determined using 2:1 kinetics of binding of analyte (BSA-cSNK) in solution to two different binding sites on the surface (immobilized bivalent, monospecific 5E3) in comparison to murine 5E3 using biolayer interferometry (Octet RED96).

For experiment [14], the target named is T1, cSNK:BSA conjugate. In words: BLI 2:1 fit, site 1 (KD1); 12.5 nM row. The procedure:
as §1

The target in experiment [15] is T1, cSNK:BSA conjugate. The experiment in a line: BLI 2:1 fit, site 1 (KD1); 100 nM row. The procedure:
as §1

The target in experiment [16] is T1, cSNK:BSA conjugate. The experiment in a line: BLI 2:1 fit, site 1 (KD1); 50 nM row. The procedure: as §1
Experiment [17] has as its target T1, cSNK:BSA conjugate. In words: BLI 2:1 fit, site 1 (KD1); 3.13 nM row. The method, then: as §1

T1 sequence (P02769 25-607 limits assumed): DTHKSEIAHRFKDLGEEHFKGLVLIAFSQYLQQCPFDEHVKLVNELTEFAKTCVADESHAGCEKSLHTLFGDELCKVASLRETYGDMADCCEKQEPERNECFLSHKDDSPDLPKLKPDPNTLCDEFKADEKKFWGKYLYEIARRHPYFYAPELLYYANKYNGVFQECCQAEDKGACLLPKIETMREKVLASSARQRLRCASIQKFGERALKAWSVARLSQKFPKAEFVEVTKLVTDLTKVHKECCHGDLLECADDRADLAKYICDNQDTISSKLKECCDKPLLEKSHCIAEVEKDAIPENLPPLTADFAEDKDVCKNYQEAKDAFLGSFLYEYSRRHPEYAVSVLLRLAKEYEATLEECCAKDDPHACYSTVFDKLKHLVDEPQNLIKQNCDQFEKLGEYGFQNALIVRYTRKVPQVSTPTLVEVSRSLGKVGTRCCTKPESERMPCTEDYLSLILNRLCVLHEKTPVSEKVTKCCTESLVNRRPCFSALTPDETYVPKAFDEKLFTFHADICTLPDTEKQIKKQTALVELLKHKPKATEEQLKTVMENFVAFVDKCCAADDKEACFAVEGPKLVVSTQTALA
T2 sequence (P05067 672-713 limits assumed): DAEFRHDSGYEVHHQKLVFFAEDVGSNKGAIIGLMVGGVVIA

B1: hu5E3-IgG1 (antibody, V domains shown)
VH: QVQLQQSGPEVKKPGASVKISCKASGYIFTSYYIQWVIHAPGQGLEWIGWIYPGNVNTKYNEKFKGKATLTADKSSSTAYMELSSLTSEDTAVYFCARMDYEAHYWGQGTTVTVSS
VL: DIQMTQSPSSLSASVGDRVTITCRASQEISGYLTWLQQKPEGAIKRLIYAASTLDSGVPKRFSGSRSGSDYSLTISSLQPEDFATYNCLQYANYPRTFGGGTKLEIK
notes: human IgG1/kappa; also called humanized 5E3 IgG1; IHA variant
As for B1, the dissociation constant (Kd) (in general, the constant that tells how readily two partners part at equilibrium) was 0.00182 µM with cSNK:BSA conjugate [1]; 0.0151 µM in the experiment with cSNK:BSA conjugate [2]; 0.000463 µM with cSNK:BSA conjugate [4]; 0.000463 µM in the experiment with cSNK:BSA conjugate [5]; 0.00627 µM with cSNK:BSA conjugate [6]; at least 182 µM with Aβ42 oligomers [7]. The Kd with cSNK:BSA conjugate [9] was 0.000463 µM; with Aβ42 oligomers [10], at most 3290 µM. Further, the kon (commonly a measure of how fast the partners come together) was 6.56e+06 M⁻¹ s⁻¹ with cSNK:BSA conjugate [3]; 1.78e+06 M⁻¹ s⁻¹ in the experiment with cSNK:BSA conjugate [4]; 1.78e+06 M⁻¹ s⁻¹ in the experiment with cSNK:BSA conjugate [5]; 6.56e+06 M⁻¹ s⁻¹ in the experiment with cSNK:BSA conjugate [8]; 1.78e+06 M⁻¹ s⁻¹ with cSNK:BSA conjugate [9]. For the same molecule, the koff in the experiment with cSNK:BSA conjugate [4], with cSNK:BSA conjugate [5] and with cSNK:BSA conjugate [9] was 0.000825 s⁻¹ throughout.

B2: hu5E3-IgG4 (antibody, V domains shown)
VH: B1 VH
VL: B1 VL
notes: human IgG4/kappa; also called humanized 5E3 IgG4
Take B2: the Kd in the experiment with cSNK:BSA conjugate [1] is 0.00304 µM; with cSNK:BSA conjugate [4], 0.000633 µM; with cSNK:BSA conjugate [5], 0.000633 µM; in the experiment with cSNK:BSA conjugate [9] it was 0.000633 µM. The kon worked out at 7.52e+06 M⁻¹ s⁻¹ with cSNK:BSA conjugate [3]; 868000 M⁻¹ s⁻¹ with cSNK:BSA conjugate [4]; 868000 M⁻¹ s⁻¹ in the experiment with cSNK:BSA conjugate [5]; 7.52e+06 M⁻¹ s⁻¹ with cSNK:BSA conjugate [8]; 868000 M⁻¹ s⁻¹ with cSNK:BSA conjugate [9]. Besides, the koff in the experiment with cSNK:BSA conjugate [4], with cSNK:BSA conjugate [5] and with cSNK:BSA conjugate [9] was 0.00055 s⁻¹ in each case. In the experiment with Ovalbumin [11], the binding result was “no binding”.

B3: murine monoclonal antibody 5E3 (antibody, V domains shown)
VH: B1 VH with V11L, K12V, K19R, A40R, E82Q, S85R, T91S, V112L
VL: B1 VL with V15L, D17E, T20S, I21L, E41D, A43T, Q79E, P80S, T85D
notes: mouse antibody of the 5E3 hybridoma; also called murine 5E3; m5E3
Regarding B3, the Kd with cSNK:BSA conjugate [1] is 0.00159 µM; with cSNK:BSA conjugate [4] it was 0.00033 µM; in the experiment with cSNK:BSA conjugate [5], 0.00033 µM; with cSNK:BSA conjugate [13] it was 0.00159 µM; in the experiment with cSNK:BSA conjugate [9] it was 0.00033 µM. Besides, the binding result with Ovalbumin [12] is listed as “no binding”. In addition, the on-rate constant (kon) with cSNK:BSA conjugate [3] came to 1.42e+07 M⁻¹ s⁻¹; with cSNK:BSA conjugate [4], 1.29e+06 M⁻¹ s⁻¹; in the experiment with cSNK:BSA conjugate [5] it was 1.29e+06 M⁻¹ s⁻¹; with cSNK:BSA conjugate [8], 1.42e+07 M⁻¹ s⁻¹; in the experiment with cSNK:BSA conjugate [9], 1.29e+06 M⁻¹ s⁻¹. For the same molecule, the koff with cSNK:BSA conjugate [4], with cSNK:BSA conjugate [5] and with cSNK:BSA conjugate [9] was 0.000428 s⁻¹ each time.

B4: hu5E3-IgG2 (antibody, V domains shown)
VH: B1 VH
VL: B1 VL
notes: human IgG2/kappa; also called humanized 5E3 IgG2
Turning to B4, the Kd with cSNK:BSA conjugate [4] and with cSNK:BSA conjugate [5] was 0.00118 µM in each case. Besides, the koff in the experiment with cSNK:BSA conjugate [4] and with cSNK:BSA conjugate [5] was 0.000762 s⁻¹ each time. Further, the kon with cSNK:BSA conjugate [4] is 644000 M⁻¹ s⁻¹; in the experiment with cSNK:BSA conjugate [5], 644000 M⁻¹ s⁻¹; with cSNK:BSA conjugate [8] it was 5.28e+06 M⁻¹ s⁻¹. In addition, the binding result in the experiment with Ovalbumin [11] was “no binding”.

B5: rehu5E3-IgG4 (antibody, V domains shown)
VH: B1 VH with K12V, T87R, T91S, T111L
VL: B1 VL with V15L, I21L, G42K, S72T, T85D
notes: human IgG4/kappa; also called IgG4 rehu version
For the molecule B5, the Kd came out at 0.00394 µM in the experiment with cSNK:BSA conjugate [1]; 0.000557 µM with cSNK:BSA conjugate [14]; 0.000557 µM with cSNK:BSA conjugate [15]; 0.000557 µM in the experiment with cSNK:BSA conjugate [16]; 0.000557 µM with cSNK:BSA conjugate [17]. Besides, the on-rate (kon) with cSNK:BSA conjugate [3] was determined as 4.44e+06 M⁻¹ s⁻¹; with cSNK:BSA conjugate [4] it was 692000 M⁻¹ s⁻¹; with cSNK:BSA conjugate [5], 692000 M⁻¹ s⁻¹; in the experiment with cSNK:BSA conjugate [8] it was 4.44e+06 M⁻¹ s⁻¹; with cSNK:BSA conjugate [9] it was 692000 M⁻¹ s⁻¹. Besides, the koff with cSNK:BSA conjugate [4], with cSNK:BSA conjugate [5] and with cSNK:BSA conjugate [9] was 0.000386 s⁻¹ in each case.
